In the DeepSol protein solubility set:

Experiment: soluble on expression in E. coli; label from the status in PepcDB or PDB records

Soluble on expression in E. coli, not soluble:
MGSDKIHHHHHHMKEQILEKLKTVKYPGFEKDIVSFNFVKDIKIQDDGVFIDIEIVSANPEVANEIRKNTIEALSSLALKNIELNIITPKIPEEKSNSRSGKNIAPQVKNFIMVSSGKGGVGKSTTTVNLAISMAKMGKRVGILDADIYGPNIPRMLGETKTQPEVVGQRLKPILTHGVYMMSMGVLIEEGQGLMWRGAMIMKAIEQLLADVIWPELDVLFLDMPPGTGDAQITSAQSIPIAAGVCVSTPQTVSLDDSKRALDMFNKLHIPIAGVIENMSGFLCPDNGKEYDIFGKGTAEDMAKAYKSEVLAQIPIEMIVREGGDEGKPVSFYHPESVSSKRYLMAAEKIWSFIEKINNEGGADNSAIQPVMNGKSACSH
MGSDKIHHHHHHMKEVLEVLPKTMKQLVENCKQYDALEEIRVRIGRPLECIAHGEVFFYDYIVTADDAIYLLNKLSHFSIYTMEEELKRGYVTLRGGHRIGLAGKVITEKSTVKMIRDVSSFNIRIARQKIGIAEPLLPYLYESRWLNTMVIGPPQTGKTTLLRDVARCMSQGVSTSKIPSCKVGIVDERSEIAGCVKGIPQYDFGTRVDVLDACPKAEGMMMMIRSMSPDILIVDEIGRKEDSEAIMEAVHAGVQLFISAHGFSYDDVVKRPSLKAVLELGIFDRFVELSKARGPGTVMQVKDKYGKPVLPHRKAESVC
MGSDKIHHHHHHMKFFDREKEIAEILHILNREPDDVYFIYGPINSGKTALINEIINNRLDKDKYVVFYFDLREIFISKYDDFIEVLFEEYEGNKKPVEIIKSLIKDVPSLCGIPAPKNTLEEILKKKTTKNVFRYITKVLMDIKKEGKQPILIIDELQKIGDMKINGFLIYELFNYFVSLTKHKHLCHVFCLSSDSLFIERVYNEAMLDGRAKYLLVDDFDKETALKFMDFLAKENNISLTNEDKELIYNYVGGKPKDIKYVVEESNFKDLKEVLDYLLNDEISKLDMFLEILDYSKPRVEVGNEVIEINKEDIIKALRLFKDKYEIPKKDIPTPVYVYLVKENILFLNPQKRILKPQSYLVWNAIKRLL
MGSDKIHHHHHHMKFLPLIAMCLFLTGCVGDRSDLELFVTTTKAQHVAHIPPLKEPPRFEHFAYQAELMRSPFVPPSRELTEEVVDTSKDCLQPDLKRRKGRLETYPLDNLKMRGTLSEADTTWALVETNDGSVYRMGTGEYLGLFNGRISKVTSQNVEVVELIPDGSGCWSERTSNLELSGE
MGSDKIHHHHHHMKFSLGPSLFFWPKNEVVDFYQQAKESSADVIYLGETVCSKRRELRAKDWLGLAQDVAQDTNKQVVVSTMTLLESPAEIQVLKRLCDNGEFLVEANDLSAVQIMHELKMPFVAGPAINCYNLSTLKVLLKQGMTRWLMPVELSGDWLKILLEQATEAGIRQQFECEVFSWGYLPLAYSARCFTARSEDKAKDDCEYCCIKYPEGRRMNSREGERVFVLNGIQTLSGYQYNLINEMPALDAMGVDIARISADSTEAFTQLDNFREQLVNPTRKELDGVTECNGFWHKIAGMSVA
MGSDKIHHHHHHMKGAAFVKKEGLKQKALEIGRVPTHLKLEIEDYGGDDKRAHFCWADPQDENTGIIVELGPDGELESLSRDIEPESGERLSEEKLEDIMRQFVETHHPGALSAFVREENDRAYGDKVRFSYVQMEAGLPLPMSGFMADVSLSGEIVYFRYYGEAGSIIKPKRVADVEEALAFIKKDVEFDLLFEVLHRSVYKNGDDQPHLVYEPEGRAITVPADLVQEEQAVDDDDDYREPESFPLPLFEGIREKADPDSMIGIENGFVKEREADLGDGRIGIVWRNPDDPVYQPADKSMDSWFKGRTHQVLKTIYNKETGKLEGVMSFMEKKGPLTVTLAECEKIALRFLFALFPNADQYFRIRYDEKDEEENAVAGFTFEAHCHGVPLRFGQIRICVSRQTGYITVYMGPDIDPNKLATIDPVPAISVEQAKSIFWQHFKVELGWEREYGDDEEHSYRLVYKPVYPHFIDAHTGEPVFSIW
MGSDKIHHHHHHMKGKHKVIVSTKRLKYEFELRRNLTIIQGDSATGKTTLVDMIRDFVNNPTGTPVEVICDKKCHVVEGSLWKEQLSGISDCIVFIDEGNEFITTVDFADKIQKTDNYYVIVTREALPALPYSVEEIYGIRTSGRYGTLKQSYHEFYRIYGTDTYEDKVSPEIIITEDSNSGYQFFEHVCIENGLKCESMNGKSNVFHYLNKHKGEKILVIADGAAFGSEIDRVLQVIHGRKNVALYLPESFEWMIMDADILKNNTVRSILSNPSEYVESKLYFSWERFFTAILIEQTKDTYLAYAKRKLNPAYLSGAIKESILRKMNIIDLNKKDE
MGSDKIHHHHHHMKGYFGPYGGQYVPEILMPALEELEAAYEEIMKDESFWKEFNDLLRDYAGRPTPLYFARRLSEKYGARIYLKREDLLHTGAHKINNAIGQVLLAKKMGKTRIIAETGAGQHGVATATAAALFGMECVIYMGEEDTIRQKPNVERMKLLGAKVVPVKSGSRTLKDAINEALRDWITNLQTTYYVIGSVVGPHPYPIIVRNFQKVIGEETKKQILEKEGRLPDYIVACVGGGSNAAGIFYPFIDSGVKLIGVEAGGEGLETGKHAASLLKGKIGYLHGSKTFVLQDDWGQVQVTHSVSAGLDYSGVGPEHAYWRETGKVLYDAVTDEEALDAFIELSRLEGIIPALESSHALAYLKKINIKGKVVVVNLSGRGDKDLESVLNHPYVRERIR
MGSDKIHHHHHHMKHLLAGILVWVIWGLCSCQSDGKVIIPSPIYVDNHYHGPADPEITWNPKTEEWMIFYTSRRPFKDQASYVGTPVGVAVSKDFVHWKFAGYCSFDGVGGQPDSEKTYWAPGVIVEGDSAHMFVTLKDDSTPVWGGPSNIVHFSAPLEDMISGWRRVNTVVDTPISIDATVVKNGDRWDMWYRDRPTEDTGGLYYAQSNDLYHWTLKGLAKGDINNVEVTKHTYQEGAYAFQWKGYFWIIADPHKGLAVYRSKDAENWEYQGIVMYEPGTRFFDNTRARHPSVIIRNDRAFIVYHVQPFLGYNPNTHEAGDDVYQKLSFLQMAELEFKDGKLICDRNKVLYK
MGSDKIHHHHHHMKHYRQVVSPQLRQQALDWILAAAQRPDPALEPEFDIADDERREAKKVRNLHRHDPLFWDDWFARSGLDALVRDHLRKPRLLRHAAFIKRHADESYIPLHQDIALWEKRYESAQTFWVALTPSRNDNGGMFYYPDDRTIFPHEFDLAYPMFKCIDLQANGISREQLVDAELDAGDVLVWPARTAHGSHNNRSGQLRIGMPIVFVEDDEFHQLNREDSMKTWIASNLKSVFPDEAITEDNLDHYLPQLCDYSLKMVTFLARFSRQFGHAPKIHDFIREPRLATLSASDAGARR
MGSDKIHHHHHHMKIAITGKGGVGKTFIASTLMRLFEKNGFKVIGVDCDPNPTLALAFGVEEEIVPLSKRHDIIEERTGAKPGTYGNIFKINPKVDDLIDKVGYKIGNITLLVMGTIEEGGEGCVCPASVLLRRLLRHLILKRDEVVILDMEAGIEHFGRKTIDTVDLMLIVIEPTKKSLITAKRMKKLANDLGIKNLGVIVNKVRNEDKELLKDIIKEELGLEVLGFVPYDEEVIKSEFLGKPINLDSKAAKEIEKIFNYIIKLKNTT
MGSDKIHHHHHHMKIAVLNQKGGSGKTTVSIHLAHAFSMIGYRVLLVDTDPQGSTRDWAAARNGEAPFSVIGLDRPILHKELPKLAQGYDFVFIDGAPRVSDLTRSAIMAVDFVLVPVQPSPLDVWAVHEVVELVQEATIYKPDLTAAFLINRKIANTALGREVTEVLGEYPFPVLKAQISQRVAFAECLNIGSTVLEAAPKSAASDEVRAVVEEILEAREETNHGRS
MGSDKIHHHHHHMKIEGLFNKYYNSFTANDKYICECILNHKEDCIKLSIDEFADKYHISTSALSRFAQKLQLPGYSELRVIIRLNETEVEYKNQSKHQLMDCYNKVIDDIEKKDCSIMFERMKKANRIIVFGEGYSQERVAKEMKRIFLPTGKIIYDVYGYDMIQALNHFIKTDDMIFFISLNGDASTIIDFAKEMRMKGIYMVSITKMISNPLARLCDENLYIQSISISVDKQLDYDVTTPYFILIELLYIKYKMYLESEHIPRK
MGSDKIHHHHHHMKIIDGNIASPLGFSADGLHAGFKKRKKDFGWIVSEVPASVAGVYTTNKVIAAPLIVTRESVKKAQKMQALVVNSGVANSCTGLQGMEDAYTMQKWTATKLKIAPELVGVASTGVIGDLMPMDTLQKGLSKLVVNGNSDDFAQAILTTDTKVKTVAVTEQFGRDEVTMAGVAKGSGMIHPNMATMLAFITCDAVISSETLQLALSQNVETTFNQITVDGDTSTNDMVLVLSNGCTLNKEILPDTPEFDKFSAMLHFVMQELAKKIAKDGEGATKLIEVEVINAPNSLDACMMAKSVVGSSLVKTAIFGEDPNWGRILAAVGYAGVDVPVDNIDIYLADIPVMLASSPVDFDEEDMQDVMRADTIKIIVDLHAGDSVGKAWGCDLSYDYVKINALYRT
MGSDKIHHHHHHMKIIILGAGQVGGTLAENLVGENNDITIVDSDKNKLRSLQDKYDLRVVVGHGAHPDVLREAGAEDADMLIAVTNSDECNMSACQIAYTLFGTPTKIARIRSEQYLHMQERLFIDSETKNSDNRTRGGFVIDELIAPEQLVTSYIQRLVEYPGALQVLEFAEGKLSLVAVRAYYGGPLVGNALAALREHMPNIDTRVAAIFRQGRPIMPRGTTIIEADDEVFFVADSRHIRAVMSEMQKLDNSYRNIMIAGGGNIGLGLAKKLERNHSVKLIEHKAERAEALSEKLQNTTVFCGDASDQELLLEEHIDQTDVFIAVTNDDEANIMSALLAKRMGAKKVMVLIQREAYVDIVQEANIDIAISPQQATISALLTHIRQGDICNVYSLRRGAAEAIEAIAHGDPSTSKVVGKQIGEIRLPPGTTIGAIVRNDEVLMAHDKTVIEQGDHVILFLVNKKFIGEVERLFQPSAFFF
MGSDKIHHHHHHMKILIIPNRGRSYNAVRPEAECYIALAEAGHDVTVISSGTNAYIDRYKKSKVKFIELKTLKKHSWAVIKQIRQYIKANNIDIVYATESKGIPNAAFACIGTKAKLVVYRGTSGGMYKTDPSNYLCMLHPRINGVIGVSSAVSANVREKVRGAIKANVETIYKGHDLSWYKEDAADLVSLGSNKKYFNILCVGSPRHHKGTHILLDAAKELNDIEDLRIILVGDNLDKQAFIDQINNSGMSEHILQPGFRSDVPAIAKACDLLILPSLSKEGLTRTVLESLSNGTPVVSSANDGVVETIENGFNGYLVPIGDVQAMADKIRMLYNDRVLLEKLSNHAQDIIKDKMSHHKTVTHMEAYFEKIIAQN
MGSDKIHHHHHHMKILILRFSSIGDIVLTTPVIRCLKKQIPNAEIHFATKASFKSILENNPYIDKLHLLESSTASFIKQLKAERFDVVIDLHSNIRTKRIKWALKAKSFTFDKLNIRKWFYVNWKWKTMPAIHIVDRYLDTVKHLGVKNDNEGLDYFIPEKDIISRDSLPQKYAAGYVAIAIGAQHATKRLPEAKLIELIGKISHPIILLGGKDDTATAARLVAYFPDTKNILNACGTYNLNQSASIVHQCMYLYTHDTGLMHIGAALQKRIISIWGNTTPELGMYAYKTEHVNWQKEDLYCRPCSKIGYNSCPKKHFRCMNEQVLPVHEIESRWN
MGSDKIHHHHHHMKILRHFLNATDPCMLQQHIRSIKQDEPANLAIAFGNIDAIVHLSQATEITQLATSWVVTSSCIAAFSDIAAEDNQNHLAILQFYDPQGSYGVASKQSSIDSIIEDSQQALTLALNAANRPGELPAFIWCSQSPGLEEGLLAGIRQLVGNNVPVFGGTAADNDVSGHWCMFDGQQTITTGFIIAVLFPSTPINYFFSSGYETTRHTAIVTSASGRKLHTLNHQPAASVYNQWRTMMALPTLANGPVLAQSTFNPLGRVILDNDEQMTLLSHPAFIYGDGTMELFSEVYQGEQLTFMHGNQTLLIQRAQTVTHFATQQLHDLYDSKPLAAIVIFCAGCMLAIKNETSQVRQGVENALGNVPFIGGFTFGEQGRFADGVNRHGNLMISAIIFGHPNE
